In patent US20220251206A1 (Bristol-Myers Squibb, published 2022):
Changes are numbered by the printed parent chain.

T1: CTLA4 (UniProt P16410 36-223, limits assumed)
T1 sequence (looked up): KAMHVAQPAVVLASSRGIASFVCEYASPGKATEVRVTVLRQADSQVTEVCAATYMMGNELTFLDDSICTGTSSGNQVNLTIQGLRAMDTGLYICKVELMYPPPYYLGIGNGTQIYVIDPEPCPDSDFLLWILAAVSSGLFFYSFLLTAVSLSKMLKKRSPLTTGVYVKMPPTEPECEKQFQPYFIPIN

B1: de-prodrugged Antibody A1 (antibody, human IgG1, kappa, V domains shown)
VH: QVQLVESGGGVVQPGRSLRLSCAASGFTFSSYTMHWVRQAPGKGLEWVTFISYDGNCKYYADSVKGRFTISRDNSKNTLYLQMNSLRAEDTAIYYCARTGWLGPFDYWGQGTLVTVSS
VL: not shown
modifications: succinimide residue (or its ring-opened derivative) left on the substituted-in Cys of VH CDR2 after cleavage of the linker
B2: de-prodrugged Antibody E1 (antibody, human IgG1, kappa, V domains shown)
VH: B1 VH with C57N
VL: not shown
modifications: succinimide residue (or its ring-opened derivative) left on Cys 57 of SEQ ID NO:10 after cleavage of the linker
B3: de-prodrugged Antibody C1 (antibody, human IgG1, kappa, V domains shown)
VH: B1 VH with C57N
VL: not shown
modifications: succinimide residue (or its ring-opened derivative) left on Cys 31 of SEQ ID NO:10 after cleavage of the linker
B4: de-prodrugged Antibody D1 (antibody, human IgG1, kappa, V domains shown)
VH: B1 VH with C57N
VL: not shown
modifications: succinimide residue (or its ring-opened derivative) left on Cys 53 of SEQ ID NO:10 after cleavage of the linker
B5: de-prodrugged Antibody B1 (antibody, human IgG1, kappa, V domains shown)
VH: B1 VH with C57N
VL: not shown
modifications: succinimide residue (or its ring-opened derivative) left on Cys 28 of SEQ ID NO:10 after cleavage of the linker

Biological target: T1, CTLA4
Test: cell-based or functional assay

Binder | IL-2 secretion by SEB-stimulated PBMC (HTRF)
B1 | ~3 fold
B2 | ~3 fold
B3 | ~3 fold
B4 | ~3 fold
B5 | ~3 fold
